Measurements reported in patent US20180360950A1 (published 2018).

Legend:
[1] = molecular target: T1, recombinant full-length DARC325 protein (UniProt Q16570 1-325); experiment: SPR
T1 chain: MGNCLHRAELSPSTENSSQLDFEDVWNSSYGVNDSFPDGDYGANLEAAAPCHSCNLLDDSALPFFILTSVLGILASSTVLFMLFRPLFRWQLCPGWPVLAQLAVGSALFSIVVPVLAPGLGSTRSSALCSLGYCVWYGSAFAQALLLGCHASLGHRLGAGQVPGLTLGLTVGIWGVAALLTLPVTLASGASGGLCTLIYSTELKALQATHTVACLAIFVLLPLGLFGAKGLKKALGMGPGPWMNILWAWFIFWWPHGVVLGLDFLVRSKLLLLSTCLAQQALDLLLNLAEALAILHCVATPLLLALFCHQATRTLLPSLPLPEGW

[2] = molecular target: recombinant full-length VAR2CSA (3D7-DBL1X-6ε) (Plasmodium falciparum (3D7)); experiment: SPR

B1: DARCVHH (VHH)
VHH: QVQLQESGGGSVQAGGSLRLSCAASGYAFSSYCMAWFRQVPGKEREGVASINSDGERRGYADSVKGRFTVSRDNAKNTVYLQMNSLKPEDTAIYYCAAKRVVGGRYCGGGVSSWGQGTQVTVSS
How did the Kd [1] turn out when B1 was run?
The Kd was 0.09 nM.

B2: DARCVHH-EBV P18F4 (VHH)
VHH: QVQLQESGGGSVQAGGSLRLSCAASGYAFSSYCMAWFRQVPGKEREGVASINSDGERRGYADSVKGRFTVSRDNAKNTVYLQMNSLKPEDTAIYYCAAKRVVGGRYCGGGVSSWGQGTQVTVSS
How did the Kd [1] turn out when B2 was run?
Its Kd is 0.0565 nM.

B3: VAR2CSAVHH (VHH)
VHH: QVQLQESGGGLVQAGGSLRLSCAFSGSIFKMGWFRQAPGKEREFVAAIRWSGGSTYYADSVKGRFTISRDNAKNTVYLQMDSLKPEDTAVYYCAATWDLAGWNTVDEYDYWGQGTQVTVSS
B3 was tested. Which Kd [2] did it give?
The Kd was 0.486 nM.
